± gives the standard error. Fewer inactive variants are shown than the library holds.
B1: glmS ribozyme (parent)
chain: AUAAAAGCGCCAGAACUACAGAAAUGUAGUUGACGAGGAGGAGGUUUAUCGAAUUUUCGGCGGAUGCCUCCAAA

Key:
Settings in all cases: with glucosamine-6-phosphate
[1] = variants of: B1; test: self-cleavage kobs at 40 uM GlcN6P; higher = faster cleavage; RNA array
Summary of the method: (§1)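 Using a hybridised Cy3 probe at 37 °C, barcoded ribozyme variants transcribed in situ by E. coli RNA polymerase on sequenced MiSeq chips were monitored across tiles imaged over ~14 h. The flow contained glucosamine-6-phosphate from 40 μM to 10 mM in HEPES/KCl/Mg(OAc)2 buffer. Signals were normalised to baseline and to non-cleaving reference variants before per-tile medians were fit to one- or two-exponential decays to yield kobs. Weighted Michaelis–Menten fits across concentrations gave kcat and KM.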

[2] = variants of: B1; test: self-cleavage kobs at 160 uM GlcN6P; higher = faster cleavage; RNA array
Summary of the method: as §1

[3] = variants of: B1; test: self-cleavage kobs at 10000 uM GlcN6P; higher = faster cleavage; RNA array
Summary of the method: as §1

[4] = variants of: B1; test: self-cleavage kobs at 2500 uM GlcN6P; higher = faster cleavage; RNA array
Summary of the method: as §1

[5] = variants of: B1; test: self-cleavage kobs at 640 uM GlcN6P; higher = faster cleavage; RNA array
Summary of the method: as §1

Variant	self-cleavage kobs at 40 uM GlcN6P [1]	self-cleavage kobs at 160 uM GlcN6P [2]	self-cleavage kobs at 10000 uM GlcN6P [3]	self-cleavage kobs at 2500 uM GlcN6P [4]	self-cleavage kobs at 640 uM GlcN6P [5]
AUAAAUGCGCCAGAACUACAGAAAUGUAGUUGACGAGGAGGAAGUUUAUCGAAUUUUCGGCGGAUGCCUCCAAA	< 1e-05 s⁻¹	< 1e-05 s⁻¹	< 1e-05 s⁻¹	–	–
AUAAAAGCGCCAGAACUACAGAAAUGUAGUUGACUAGGAGGAGGUUUCUCGAAUUUUCGGCGGAUGCCUCCAAA	< 1e-05 s⁻¹	–	< 1e-05 s⁻¹	< 1e-05 s⁻¹	–
AUAAAGGCGCCAGAACUACAGAAAUGUAGUUGACGAGGAGGAGGUUUAUCGACUUUUAGGAGGAUGCCUCCAAA	< 1e-05 s⁻¹	–	< 1e-05 s⁻¹	–	–
AUAAAAGCGCCAGAACUACAGAAAUGUAGUUAACGAGGAGCAGGUUUAUCGAAUUUUCGGCGGAUGCCUCCAAA	< 1e-05 s⁻¹	–	3.31e-05 ± 8.8e-06 s⁻¹	–	< 1e-05 s⁻¹
AUAAAAGCGCCAGAACUACAGAAAUGUAGUUGACGAGGAGGAGGUUUAUCGAAAUUUCGGUGGAUGCCUCGAAA	< 1e-05 s⁻¹	–	–	–	–
AUAAAAGUGCCAGAACUACAGAAAUGUAGUUGACGAGGAUGAGGUUUAUCGAAUUUUCGGCGGAUGCCUACAAA	< 1e-05 s⁻¹	–	< 1e-05 s⁻¹	–	–
AUAAAAGCGCCAGAACUACAGAAAUGUAGUUGACGAAGAGGAGGUUUAUCGAGUUUUCGGCGGAUGCCUCCAAA	0.000101 ± 2.3e-05 s⁻¹	0.000212 ± 3.8e-05 s⁻¹	0.00615 ± 0.0014 s⁻¹	0.00163 ± 0.00063 s⁻¹	0.000708 ± 0.00015 s⁻¹
AUAAAAGCGCCAGAAUUACAGAAAUGUAGUAGACGAGGAGGAGGUUUAUCGAAUUUUCGGCGGAUGCCUCCAAA	0.000621 ± 7.9e-05 s⁻¹	0.000862 ± 0.00014 s⁻¹	0.0168 ± 0.0026 s⁻¹	0.00634 ± 0.0017 s⁻¹	0.00468 ± 0.00061 s⁻¹
AUAAAAGCGUCAGAACUACAGAAAUGUAGUUGACGAGGAGGAUGUUUAUCGAAUUUUCGGCGGAUGCCUACAAA	< 1e-05 s⁻¹	–	–	–	–
AUAAAAGCACCAGAACUACAGAAAUGUAGUUGACGAGGAGGAGGUUUAUCGAAUUUUCGGCGGAUGCGUCCAAA	< 1e-05 s⁻¹	< 1e-05 s⁻¹	< 1e-05 s⁻¹	< 1e-05 s⁻¹	< 1e-05 s⁻¹
AUAAAAGCGUUAGAACUACAGAAAUGUAGUUGACGAGGAGGAGGUUUAUCGAAUUUUCGGCGGGAGCCUCCAAA	< 1e-05 s⁻¹	–	–	–	–
AUAAAAGCGCCAGAACUACAGAAAUGUAGUUGACGAGGAGGAGGUUUAUCGAAUUUUCGGCCGACGCCUCCAAA	< 1e-05 s⁻¹	< 1e-05 s⁻¹	–	< 1e-05 s⁻¹	< 1e-05 s⁻¹
AUAAAAGCGGCAGAACUACAGAAAUGUAGUUGACGAGGAGGAGGUUUAUGGAAUUUUCGGCGGAUGCCUCCAAA	5.37e-05 ± 1.8e-05 s⁻¹	0.000187 ± 3.5e-05 s⁻¹	4.6e-05 ± 1.1e-05 s⁻¹	9.17e-05 ± 2.1e-05 s⁻¹	0.00026 ± 4.4e-05 s⁻¹
AUAAAAACGCCAGAACUACAGAAAUGUAGUUGACGAGGAGGAGGUUUAUCGAAUUUUAGGCGGAUGGCUCCAAA	5.23e-05 ± 2.2e-05 s⁻¹	–	–	–	–
AUAAAAGUGCCAGAGCUACAGAAAUGUAGUUGAUUUGGAGGAGGUUUAUCGAAUUUUCGGCGGAUGCAUCCAAA	< 1e-05 s⁻¹	< 1e-05 s⁻¹	–	–	< 1e-05 s⁻¹
AUAAAAGCGCCAGAACUACAGAAAUGUAGUUGAGGAGGAGGAGGUUUAUCGAAUUUUCGGCAGAUGCCUCCAAA	< 1e-05 s⁻¹	–	< 1e-05 s⁻¹	< 1e-05 s⁻¹	< 1e-05 s⁻¹
AUAAAUGCGCCAGAACUACAGAAAUGUAGUUGACGAGGAGAUGGUUUAUCGAAUUUUCGGCGGAUGCCUCCAAA	< 1e-05 s⁻¹	–	< 1e-05 s⁻¹	–	–
AUAAAAGGGCCAGAACUACAGAAAUGUAGUUGACGAGGAGGAGGUUUAUCGAAUUUGCGGCGGAUGCCUGCAAA	0.0017 ± 0.00055 s⁻¹	–	–	–	–
AUAAAAGCGCCAGAACUACAGAAAUGUAGUUGACGAGGAGGAGGUUUAUCGAAUUUUCUGCGUAUGACUCCAAA	< 1e-05 s⁻¹	–	< 1e-05 s⁻¹	–	–
AUAAAAGAGACAGAACUACAGAAAUGUAGUUGAUGAGGAGGAGGUUUAUCGAAUUUUCGACGGAUGCCUCCAAA	< 1e-05 s⁻¹	–	–	–	–
AUAAAUGCGCCAGAACUACAGAAAUGUAGUUGAAGAGGAGGAGGUUUAUCGAAUUUUCGGCGGAUGCCUCCAAA	< 1e-05 s⁻¹	< 1e-05 s⁻¹	< 1e-05 s⁻¹	< 1e-05 s⁻¹	< 1e-05 s⁻¹
AUAAAAGCGCCAGAACUACAGAAAUGUAGUUGACGAGUAGGAGAUUUAUCGAAUUUUCGGCGGAUGCCUCCAAA	< 1e-05 s⁻¹	< 1e-05 s⁻¹	< 1e-05 s⁻¹	< 1e-05 s⁻¹	< 1e-05 s⁻¹
AUAAAAGCGCCAGAGCUACAGAAAUGUAGUUGACGAGGAGAAGGUUUAUCGAAUUUUCGGCGGAUGCCUCCAAA	0.000137 ± 1.9e-05 s⁻¹	0.000239 ± 4.1e-05 s⁻¹	0.00309 ± 0.00072 s⁻¹	0.0013 ± 0.00038 s⁻¹	0.000767 ± 0.00025 s⁻¹
AUAAAGGCGCCAGAACUACAGAAAUGUAGUUGACGAGGAGUAGGUUUAUGGAAUUUUCGGCGGAUGCCUCCAAA	< 1e-05 s⁻¹	–	< 1e-05 s⁻¹	< 1e-05 s⁻¹	–
AUAAAAGCGCCAGAACUACAGAAAUGUAGUUGACGAGCACGAGGUUUAUCGAAUUUUCGGCGGUUGCCUCCAAA	< 1e-05 s⁻¹	–	< 1e-05 s⁻¹	–	–
